This assay deals with BG505_mut123_N241 SOSIP (HIV-1 (subtype A, BG505)) (UniProt Q2N0S6). The assay can be described thus: negative-stain EM.

B1: 13B Fab (Fab, V domains shown)
VH: LEESGGGLVQPEGSLTLTCKASGFDFSDYHVQWVRQSPGKGLEFIGGIAYTGNIYYASWAKGRFTISKTSSTTVTLQMTTLTAADTATYFCARAYGYASAPYAQYFNLWGPGTLVTVSS
VL: DIVMTQTPASVSEPVGGTVTINCQASQSRGNNYLSWYQQKPGQSPSLLIYRTSTLASGVPSRFKGSGSGTQFTLTISDLECADAATYYCLYGYYSSRNPDFAFGGGTEVVVK
The molecule B1 had a percent of particles that were trimers with no Fab bound of 57% and a percent of particles with one Fab bound of 43%.

The values are drawn from PMC7081899.
